{
  "source": "the supplement of paper PMC12855868",
  "parents": {"B1": {"name": "library; numbered along this chain (parent)", "chain": "MAAAGGARLLRAASAVLGGPAGRWLHHAGSRAGSSGLLRNRGPGGSAEASRSLSVSARARSSSEDKITVHFINRDGETLTTKGKVGDSLLDVVVENNLDIDGFGACEGTLACSTCHLIFEDHIYEKLDAITDEENDMLDLAYGLTDRSRLGCQICLTKSMDNMTVRVPETVADARQSIDVGKTS"}},
  "variants_of": "B1",
  "experiment": "scaled log2 fold change in cell abundance, elesclomol vs control (0 = silent mean, 1 = nonsense mean) (scaled log2 ratio); higher = higher viability under elesclomol (loss of FDX1 cuproptosis function)",
  "settings": "glucose 10 mM",
  "description": "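Deep mutational scan of full-length human FDX1: a pooled saturation-mutagenesis ORF library (every residue 2-184 mutated to all 19 amino acids plus stop, and silent codons where available) was expressed by lentivirus in FDX1-knockout ABC1 (14 days) or HEK293T (11 days) cells grown with elesclomol (ES) or DMSO control. Variant abundance came from ORF sequencing. The log2 fold change (ES vs control, mean of duplicates) was centred on the silent-variant mean (0) and scaled to the nonsense-variant mean (1). Higher values mean greater viability under ES, i.e. loss of FDX1 function in cuproptosis.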",
  "key": {"[1]": {"settings": "with ABC1 FDX1 KO, elesclomol 5 nM, 14 days"}, "[2]": {"settings": "with HEK293T FDX1 KO, elesclomol 40 nM, 11 days"}},
  "data": [
    {"variant": "MAAAGGARLLRAASAVLGGPAGRWLHIAGSRAGSSGLLRNRGPGGSAEASRSLSVSARARSSSEDKITVHFINRDGETLTTKGKVGDSLLDVVVENNLDIDGFGACEGTLACSTCHLIFEDHIYEKLDAITDEENDMLDLAYGLTDRSRLGCQICLTKSMDNMTVRVPETVADARQSIDVGKTS", "note": "[H27I]", "values": [
      {"measurement": "scaled log2 fold change", "setting": "[1]", "result": -0.11},
      {"measurement": "scaled log2 fold change", "setting": "[2]", "result": 1.23}
    ]},
    {"variant": "MAAAGGARLLRAASAVLGGPAGRWLHAAGSRAGSSGLLRNRGPGGSAEASRSLSVSARARSSSEDKITVHFINRDGETLTTKGKVGDSLLDVVVENNLDIDGFGACEGTLACSTCHLIFEDHIYEKLDAITDEENDMLDLAYGLTDRSRLGCQICLTKSMDNMTVRVPETVADARQSIDVGKTS", "note": "[H27A]", "values": [
      {"measurement": "scaled log2 fold change", "setting": "[1]", "result": -0.0135},
      {"measurement": "scaled log2 fold change", "setting": "[2]", "result": 0.337}
    ]},
    {"variant": "MAAAGGARLLRAASAVLGGPAGRWLHCAGSRAGSSGLLRNRGPGGSAEASRSLSVSARARSSSEDKITVHFINRDGETLTTKGKVGDSLLDVVVENNLDIDGFGACEGTLACSTCHLIFEDHIYEKLDAITDEENDMLDLAYGLTDRSRLGCQICLTKSMDNMTVRVPETVADARQSIDVGKTS", "note": "[H27C]", "values": [
      {"measurement": "scaled log2 fold change", "setting": "[1]", "result": 0.145},
      {"measurement": "scaled log2 fold change", "setting": "[2]", "result": -0.412}
    ]},
    {"variant": "MAAAGGARLLRAASAVLGGPAGRWLHEAGSRAGSSGLLRNRGPGGSAEASRSLSVSARARSSSEDKITVHFINRDGETLTTKGKVGDSLLDVVVENNLDIDGFGACEGTLACSTCHLIFEDHIYEKLDAITDEENDMLDLAYGLTDRSRLGCQICLTKSMDNMTVRVPETVADARQSIDVGKTS", "note": "[H27E]", "values": [
      {"measurement": "scaled log2 fold change", "setting": "[1]", "result": -0.316},
      {"measurement": "scaled log2 fold change", "setting": "[2]", "result": -0.0257}
    ]},
    {"variant": "MAAAGGARLLRAASAVLGGPAGRWLHLAGSRAGSSGLLRNRGPGGSAEASRSLSVSARARSSSEDKITVHFINRDGETLTTKGKVGDSLLDVVVENNLDIDGFGACEGTLACSTCHLIFEDHIYEKLDAITDEENDMLDLAYGLTDRSRLGCQICLTKSMDNMTVRVPETVADARQSIDVGKTS", "note": "[H27L]", "values": [
      {"measurement": "scaled log2 fold change", "setting": "[1]", "result": 0.396}
    ]},
    {"variant": "MAAAGGARLLRAASAVLGGPAGRWLHMAGSRAGSSGLLRNRGPGGSAEASRSLSVSARARSSSEDKITVHFINRDGETLTTKGKVGDSLLDVVVENNLDIDGFGACEGTLACSTCHLIFEDHIYEKLDAITDEENDMLDLAYGLTDRSRLGCQICLTKSMDNMTVRVPETVADARQSIDVGKTS", "note": "[H27M]", "values": [
      {"measurement": "scaled log2 fold change", "setting": "[1]", "result": 0.0388}
    ]},
    {"variant": "MAAAGGARLLRAASAVLGGPAGRWLHDAGSRAGSSGLLRNRGPGGSAEASRSLSVSARARSSSEDKITVHFINRDGETLTTKGKVGDSLLDVVVENNLDIDGFGACEGTLACSTCHLIFEDHIYEKLDAITDEENDMLDLAYGLTDRSRLGCQICLTKSMDNMTVRVPETVADARQSIDVGKTS", "note": "[H27D]", "values": [
      {"measurement": "scaled log2 fold change", "setting": "[1]", "result": -0.0235},
      {"measurement": "scaled log2 fold change", "setting": "[2]", "result": -0.507}
    ]},
    {"variant": "MAAAGGARLLRAASAVLGGPAGRWLHPAGSRAGSSGLLRNRGPGGSAEASRSLSVSARARSSSEDKITVHFINRDGETLTTKGKVGDSLLDVVVENNLDIDGFGACEGTLACSTCHLIFEDHIYEKLDAITDEENDMLDLAYGLTDRSRLGCQICLTKSMDNMTVRVPETVADARQSIDVGKTS", "note": "[H27P]", "values": [
      {"measurement": "scaled log2 fold change", "setting": "[1]", "result": -0.143}
    ]},
    {"variant": "MAAAGGARLLRAASAVLGGPAGRWLHFAGSRAGSSGLLRNRGPGGSAEASRSLSVSARARSSSEDKITVHFINRDGETLTTKGKVGDSLLDVVVENNLDIDGFGACEGTLACSTCHLIFEDHIYEKLDAITDEENDMLDLAYGLTDRSRLGCQICLTKSMDNMTVRVPETVADARQSIDVGKTS", "note": "[H27F]", "values": [
      {"measurement": "scaled log2 fold change", "setting": "[1]", "result": 0.196},
      {"measurement": "scaled log2 fold change", "setting": "[2]", "result": 0.363}
    ]},
    {"variant": "MAAAGGARLLRAASAVLGGPAGRWLHNAGSRAGSSGLLRNRGPGGSAEASRSLSVSARARSSSEDKITVHFINRDGETLTTKGKVGDSLLDVVVENNLDIDGFGACEGTLACSTCHLIFEDHIYEKLDAITDEENDMLDLAYGLTDRSRLGCQICLTKSMDNMTVRVPETVADARQSIDVGKTS", "note": "[H27N]", "values": [
      {"measurement": "scaled log2 fold change", "setting": "[1]", "result": -0.105},
      {"measurement": "scaled log2 fold change", "setting": "[2]", "result": 0.565}
    ]},
    {"variant": "MAAAGGARLLRAASAVLGGPAGRWLHGAGSRAGSSGLLRNRGPGGSAEASRSLSVSARARSSSEDKITVHFINRDGETLTTKGKVGDSLLDVVVENNLDIDGFGACEGTLACSTCHLIFEDHIYEKLDAITDEENDMLDLAYGLTDRSRLGCQICLTKSMDNMTVRVPETVADARQSIDVGKTS", "note": "[H27G]", "values": [
      {"measurement": "scaled log2 fold change", "setting": "[1]", "result": 0.0381},
      {"measurement": "scaled log2 fold change", "setting": "[2]", "result": -0.171}
    ]},
    {"variant": "MAAAGGARLLRAASAVLGGPAGRWLHKAGSRAGSSGLLRNRGPGGSAEASRSLSVSARARSSSEDKITVHFINRDGETLTTKGKVGDSLLDVVVENNLDIDGFGACEGTLACSTCHLIFEDHIYEKLDAITDEENDMLDLAYGLTDRSRLGCQICLTKSMDNMTVRVPETVADARQSIDVGKTS", "note": "[H27K]", "values": [
      {"measurement": "scaled log2 fold change", "setting": "[1]", "result": 0.325},
      {"measurement": "scaled log2 fold change", "setting": "[2]", "result": 0.621}
    ]},
    {"variant": "MAAAGGARLLRAASAVLGGPAGRWLYHAGSRAGSSGLLRNRGPGGSAEASRSLSVSARARSSSEDKITVHFINRDGETLTTKGKVGDSLLDVVVENNLDIDGFGACEGTLACSTCHLIFEDHIYEKLDAITDEENDMLDLAYGLTDRSRLGCQICLTKSMDNMTVRVPETVADARQSIDVGKTS", "note": "[H26Y]", "values": [
      {"measurement": "scaled log2 fold change", "setting": "[1]", "result": 0.147},
      {"measurement": "scaled log2 fold change", "setting": "[2]", "result": -0.00505}
    ]},
    {"variant": "MAAAGGARLLRAASAVLGGPAGRWLWHAGSRAGSSGLLRNRGPGGSAEASRSLSVSARARSSSEDKITVHFINRDGETLTTKGKVGDSLLDVVVENNLDIDGFGACEGTLACSTCHLIFEDHIYEKLDAITDEENDMLDLAYGLTDRSRLGCQICLTKSMDNMTVRVPETVADARQSIDVGKTS", "note": "[H26W]", "values": [
      {"measurement": "scaled log2 fold change", "setting": "[1]", "result": 0.101},
      {"measurement": "scaled log2 fold change", "setting": "[2]", "result": -0.281}
    ]},
    {"variant": "MAAAGGARLLRAASAVLGGPAGRWLSHAGSRAGSSGLLRNRGPGGSAEASRSLSVSARARSSSEDKITVHFINRDGETLTTKGKVGDSLLDVVVENNLDIDGFGACEGTLACSTCHLIFEDHIYEKLDAITDEENDMLDLAYGLTDRSRLGCQICLTKSMDNMTVRVPETVADARQSIDVGKTS", "note": "[H26S]", "values": [
      {"measurement": "scaled log2 fold change", "setting": "[1]", "result": 0.241}
    ]},
    {"variant": "MAAAGGARLLRAASAVLGGPAGRWLTHAGSRAGSSGLLRNRGPGGSAEASRSLSVSARARSSSEDKITVHFINRDGETLTTKGKVGDSLLDVVVENNLDIDGFGACEGTLACSTCHLIFEDHIYEKLDAITDEENDMLDLAYGLTDRSRLGCQICLTKSMDNMTVRVPETVADARQSIDVGKTS", "note": "[H26T]", "values": [
      {"measurement": "scaled log2 fold change", "setting": "[1]", "result": 0.206},
      {"measurement": "scaled log2 fold change", "setting": "[2]", "result": 0.037}
    ]},
    {"variant": "MAAAGGARLLRAASAVLGGPAGRWLQHAGSRAGSSGLLRNRGPGGSAEASRSLSVSARARSSSEDKITVHFINRDGETLTTKGKVGDSLLDVVVENNLDIDGFGACEGTLACSTCHLIFEDHIYEKLDAITDEENDMLDLAYGLTDRSRLGCQICLTKSMDNMTVRVPETVADARQSIDVGKTS", "note": "[H26Q]", "values": [
      {"measurement": "scaled log2 fold change", "setting": "[1]", "result": 0.0786},
      {"measurement": "scaled log2 fold change", "setting": "[2]", "result": 1.39}
    ]},
    {"variant": "MAAAGGARLLRAASAVLGGPAGRWLRHAGSRAGSSGLLRNRGPGGSAEASRSLSVSARARSSSEDKITVHFINRDGETLTTKGKVGDSLLDVVVENNLDIDGFGACEGTLACSTCHLIFEDHIYEKLDAITDEENDMLDLAYGLTDRSRLGCQICLTKSMDNMTVRVPETVADARQSIDVGKTS", "note": "[H26R]", "values": [
      {"measurement": "scaled log2 fold change", "setting": "[1]", "result": -0.169},
      {"measurement": "scaled log2 fold change", "setting": "[2]", "result": -0.571}
    ]}
  ]
}
